Data: US20040072754A1, “Amyloid precursor protein and APP-deprived peptides inhibit tumor growth and metastasis” (priority 2000, published 2004)
No end group written: not given here.

Assays:
[1] = system: D122 tumor cells (Lewis lung carcinoma); assay: Lewis lung carcinoma (D122) i.v. lung metastasis model with i.p. injected Aβ peptides; type: in vivo, C57/BL mice; details: 20 μg/mouse/injection (Aβ96-110: 10 μg), 7 times during two weeks before and 7 times after D122 i.v. injection; examined after 21 days
Procedure: The intravenous (i.v.) model. […] D122 or B16 tumor cells were injected i.v. into Tg-APP, Tg-APP/SOD or parental mice and metastasis was evaluated after 30-37 days. In certain long-term experiments the evaluation was performed over a period of 120-140 days post injection of the tumor cells.
Aβ peptides in phosphate buffered saline (PBS) were injected i.p. into C57/BL mice 4-7 times (7-10 μg each time or 10-20 μg each time in other experiments) during two weeks preceding D122 or B16 tumor cells injection and seven times every second day following D122 or B16 tumor cells injection. Control mice were i.p. injected with PBS. Mice were sacrificed 20-21 days following injection of D122 or B16 tumor cells by injecting 20 mg/mouse Xylazine (i.p.) and lungs were weighed. Lungs were fixed, stained in Bouin's solution and metastases counted. For histology, lungs were fixed in buffered formalin and histological sections were prepared and stained with Hematoxylin-Eosin. Each experimental group included 7-12 animals, and experiments were repeated twice.
D122 tumor cells were injected i.v. to the tail of C57/BL mice. […] All together 77 μg of AP 1-42 were injected into each mouse. After 21 days tumor weight and number of metastases in the lungs were examined.
D122 tumor cells were injected intravenously to the tail of C57/BL mice. […]

[2] = system: hippocampal cell cultures; details: Iversen et al., 1995; cited from earlier work

Substance | reduction of the number of metastases in the lungs [1] [%] | toxicity to neuronal cells [2]
NWCKRGRKQCKTHPH (cysteine pairing not given here) [Aβ96-10] | 9 | 
Aβ1-40: Aβ sequence fragment tested for neurotoxicity in the literature |  | induced toxicity
Aβ25-35: Aβ sequence fragment tested for neurotoxicity in the literature (GSNKGAIIGLM; Amyloid-beta protein 42; UniProt P05067 696-706, looked up, fragment) |  | induced toxicity
Aβ1-38: Aβ sequence fragment tested for neurotoxicity in the literature |  | induced toxicity
Aβ1-28: Aβ sequence fragment tested for neurotoxicity in the literature |  | non-toxic
